Assay results taken from patent US20220306739A1.

Target: T cell receptor gamma variable 9 (TRGV9) on human γδ T cells (human) (UniProt Q99603)
Test: γδ T-cell binding (γδ-enriched T cells), readout 'Signal'

EC50: 0.56 nM
B1: VG9B2, chimera human IgG1 mAb (silent Fc) of mouse anti-human TCR Vγ9 clone B3 (antibody, V domains shown)
VH: QGQMQQSGAELVKPGASVKLSCKTSGFTFSSNYISWLKQKPGQSLEWIAWIHGGTGGIGYNQKFTGKAQLTVDTSSTTAYMQFSSLTTEDSAIYYCARRGYGAWFAYWGQGTLVTVSA
VL: DIQMTQSPASLSASVGETVTITCRASENIHNYLAWYQQKQGKSPQLLVYNAKTLADGVPSRFSGSGSGTQYSLKINSLQPEDFGNYYCQHFWSYPLTFGAGTKLELK
